For experiment [1], the target named is T1, PD1 (on CHO-PD1 cells and on T cells) (human, UniProt Q15116 25-288).
T1 construct: whole, on cells; also called PD1抗原分子
The experiment in a line: flow cytometry on CHO-PD1 cells. (Flow cytometry measures light scatter and fluorescence of single cells or particles in a stream.)

Another experiment has as its target T2, CD96-His (human, UniProt P40200-2 22-503, limits assumed).
T2 construct: not shown: His tag
T2 sequence (looked up): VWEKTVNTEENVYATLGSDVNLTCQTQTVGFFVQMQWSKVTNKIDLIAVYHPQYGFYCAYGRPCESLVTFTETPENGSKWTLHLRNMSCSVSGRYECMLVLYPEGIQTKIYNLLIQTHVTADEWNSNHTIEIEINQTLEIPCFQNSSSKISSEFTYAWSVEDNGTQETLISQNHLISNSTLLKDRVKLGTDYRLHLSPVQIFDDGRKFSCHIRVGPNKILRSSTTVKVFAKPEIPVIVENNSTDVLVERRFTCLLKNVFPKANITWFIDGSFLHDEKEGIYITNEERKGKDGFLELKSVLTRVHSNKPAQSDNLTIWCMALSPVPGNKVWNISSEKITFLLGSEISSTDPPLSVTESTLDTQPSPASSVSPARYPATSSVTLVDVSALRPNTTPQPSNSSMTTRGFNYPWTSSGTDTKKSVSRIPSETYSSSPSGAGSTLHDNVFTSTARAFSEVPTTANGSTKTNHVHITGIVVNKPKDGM
Put plainly: BLI (Fortebio), CD96-His antigen immobilised.

For experiment [2], the target named is T3, CD96 (on 293T-CD96 cells and on T cells) (human) (UniProt P40200).
T3 sequence (looked up): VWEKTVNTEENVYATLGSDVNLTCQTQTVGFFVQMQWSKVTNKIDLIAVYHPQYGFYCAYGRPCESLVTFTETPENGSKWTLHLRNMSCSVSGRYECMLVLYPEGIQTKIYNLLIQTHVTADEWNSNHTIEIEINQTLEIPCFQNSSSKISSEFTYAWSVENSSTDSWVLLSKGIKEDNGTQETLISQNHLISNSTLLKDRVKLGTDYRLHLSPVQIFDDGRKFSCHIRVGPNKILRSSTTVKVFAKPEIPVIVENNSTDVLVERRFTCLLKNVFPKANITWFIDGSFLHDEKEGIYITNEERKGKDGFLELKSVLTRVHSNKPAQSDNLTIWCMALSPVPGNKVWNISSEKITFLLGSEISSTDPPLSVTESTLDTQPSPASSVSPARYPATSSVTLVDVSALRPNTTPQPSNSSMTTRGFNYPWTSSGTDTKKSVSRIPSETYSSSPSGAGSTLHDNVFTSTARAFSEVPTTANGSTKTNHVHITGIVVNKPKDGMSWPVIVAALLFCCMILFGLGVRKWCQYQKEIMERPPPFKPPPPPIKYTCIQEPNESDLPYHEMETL
Put plainly: flow cytometry on 293T-CD96 cells, 1.25 μg antibody, FITC anti-IgG detection.

For experiment [3], the target named is T3, CD96 (on 293T-CD96 cells and on T cells) (human). The experiment in a line: flow cytometry on T cells at day 11 (CD96 expression 96.05%), FITC anti-IgG detection.

T1 sequence (Q15116 25-288): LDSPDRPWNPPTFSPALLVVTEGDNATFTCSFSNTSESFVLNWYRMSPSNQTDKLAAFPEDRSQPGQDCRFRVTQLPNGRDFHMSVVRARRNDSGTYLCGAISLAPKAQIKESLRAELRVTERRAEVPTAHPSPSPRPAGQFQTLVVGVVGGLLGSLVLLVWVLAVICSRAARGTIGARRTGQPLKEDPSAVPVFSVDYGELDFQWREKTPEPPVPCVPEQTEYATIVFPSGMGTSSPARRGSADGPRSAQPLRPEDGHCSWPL

B1: CD96 ScFv-Holes-PD1 ScFv-Knobes (bispecific antibody, human IgG4 S228P)
chain 1: DVVMTQTPLTLSVTIGQPASISCKSSQSLLDSDGKTYLNWLLQRPGESPKLLIYLVSKLDSGVPDRFTGSGSGTDFTLKISRVEAEDLGVYYCLQATHFPWTFGGGTKLEIKGSTSGSGKPGSGEGSTKGQVTLKESGPGILQPSQTLSLTCSFSGFSLDTFGMGVGWIRQSSGKGLEWLAHIWWDDDKFYNPALKSRLTVSKDTSKNQVFLKIANVDTADTATYYCAHYYGSLSFDVWGTGTTVTVSSESKYGPPCPPCPAPEFLGGPSVFLFPPKPKDTLMISRTPEVTCVVVDVSQEDPEVQFNWYVDGVEVHNAKTKPREEQFNSTYRVVSVLTVLHQDWLNGKEYKCKVSNKGLPSSIEKTISKAKGQPREPQVCTLPPSQEEMTKNQVSLSCAVKGFYPSDIAVEWESNGQPENNYKTTPPVLDSDGSFFLVSKLTVDKSRWQEGNVFSCSVMHEALHNHYTQKSLSLSLGK
chain 2: EIVLTQSPATLSLSPGERATLSCRASQSVSSYLAWYQQKPGQAPRLLIYDASNRATGIPARFSGSGSGTDFTLTISSLEPEDFAVYYCQQSSNWPRTFGQGTKVEIKGSTSGSGKPGSGEGSTKGQVQLVESGGGVVQPGRSLRLDCKASGITFSNSGMHWVRQAPGKGLEWVAVIWYDGSKRYYADSVKGRFTISRDNSKNTLFLQMNSLRAEDTAVYYCATNDDYWGQGTLVTVSSESKYGPPCPPCPAPEFLGGPSVFLFPPKPKDTLMISRTPEVTCVVVDVSQEDPEVQFNWYVDGVEVHNAKTKPREEQFNSTYRVVSVLTVLHQDWLNGKEYKCKVSNKGLPSSIEKTISKAKGQPREPQVYTLPPCQEEMTKNQVSLWCLVKGFYPSDIAVEWESNGQPENNYKTTPPVLDSDGSFFLYSKLTVDKSRWQEGNVFSCSVMHEALHNHYTQKSLSLSLGK
notes: Knob-into-hole heterodimer of two scFv-Fc chains
Regarding B1, the binding result in experiment [1] was “binds”.

B2: CD96 ScFv-Fc (scFv)
chain: DVVMTQTPLTLSVTIGQPASISCKSSQSLLDSDGKTYLNWLLQRPGESPKLLIYLVSKLDSGVPDRFTGSGSGTDFTLKISRVEAEDLGVYYCLQATHFPWTFGGGTKLEIKGSTSGSGKPGSGEGSTKGQVTLKESGPGILQPSQTLSLTCSFSGFSLDTFGMGVGWIRQSSGKGLEWLAHIWWDDDKFYNPALKSRLTVSKDTSKNQVFLKIANVDTADTATYYCAHYYGSLSFDVWGTGTTVTVSS
notes: Monospecific scFv-Fc control ('单抗'); also called CD96单抗; CD96抗体; not shown: Fc of the monospecific ScFv-Fc
Regarding B2, the Kd in the experiment with CD96-His came to 0.0308 µM. The same molecule registered an FITC-IgG的表达率 (percent positive cells) in experiment [2] of 86.7%. Further, the FITC-IgG的表达 (percent positive cells) in experiment [3] came to 96.1%.

For orientation: Kd means a measure of binding affinity in units of concentration. Higher therefore signals a looser complex.

These data come from CN112961245A (CHONGQING PREC BIOTECH CO LTD, dated 2021).
